This data set can be described thus: soluble fraction after stress (log2 fold change); higher = more stays soluble; pooled small domains, quantitative proteomics. To be noted: stress: 50 degC. An outline of the steps: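 After stress at 50°C, the amount of each protein still soluble was measured. This was done on pooled custom libraries of small protein domains, using high-throughput quantitative proteomics. The figure given is a base-two log fold change and stands for aggregation propensity, with higher values meaning more protein stays in solution.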
Regarding “HMNALNDLESKIFEEVVKAPEIIMNMTIREFASTVHASPTTIVRMTHKLGFSGWNELKTYLQKQKHQIS”, the “soluble fraction (log2)” value is -1.02.

Consider “HMSDHYEVLGVDRNATDDQIKKAYRRLARELHPDVNDAPESQEKFKLVTHAYEVLSDPDERRKYDMG”, for which the “soluble fraction (log2)” value is 0.0925.

“HMPDLSAEERNIVEALQKSNDLQVNLIAVKTGMDMGTLSATLFGLEMKGLVKLMAGGTYHLI”: the “soluble fraction (log2)” value is -0.141.

As for “HMSVLPAREQVAAILRQAILLRKFKEGQDLTLKDAAELVGSSITPVREAFQILENEGLIELRPNKGAVVL”, the “soluble fraction (log2)” value was -0.284.

With “HMGGLAEGTKITLQNTVNVRASMGEDAEKIGTAYAGEKVTVIMSYAEGWTKVTWNDKTGYIKTSLL”, the “soluble fraction (log2)” value is -0.634.

As to “HMDVRKSISDLKALGLSDAAVTVYGTIGNKPVHIDKIVSELGIPVFKVLTALTQLEMKGLVTAMQGRMYVL”, the “soluble fraction (log2)” value is -1.01.

In the case of “HMTPNATWQDDAQNLLRDLIQHQPVLVQISAAKRLRDQAEQISRITGGETVTREHVEAAGHALGMGVT”, the “soluble fraction (log2)” value turned out to be 0.0847.

For the sequence “HMNQPRQRKVIFELIDERNALERVLMHFAHLEKQVEKIDERKYQVTLYYDKEDETEILIRVLSFG”, the “soluble fraction (log2)” value was -1.15.

For “HMQISYDVPNLIGKSYEEVMTDPSILGEHFTVVLGETKTDEDTDAGVILHQDPAADSKVQDEVTPITVTVS”, the “soluble fraction (log2)” value amounted to 0.42.

In the case of “HMPKAKASARNDTRTRLLTIGTEVLSQKGFASTGVEEILSVAGVPKGAFYYYFESKAAFGLAVIENYE”, the “soluble fraction (log2)” value is 0.0027.

On to “HMINPASEKQLSFANSLIAKKEGGTETLNHYLHNRKVSSLEELDRKDVSEIINALKFAKEVT”, for which the “soluble fraction (log2)” value was found to be 0.217.

“HMLSTGIIIGDNVALRKTASSNGGIITRLDEGTVVKILASNVNAEWYQVEAGTKTGYVNRLYVNID”: the “soluble fraction (log2)” value is -0.293.

“HMGKTTQEIEERSSTSTLTLTQTPKEIISVQGKKSDQSFFTNIQYTQNGKVIVPKQTGIYDTIKVVFTVSL”: the “soluble fraction (log2)” value is -1.2.

For the sequence “HMSKISKENEQQVIQIVQTLLLNVQDKSLITTQILNEKINLAVSLDTKYKENLDRDYIIEELIRRYSVW”, the “soluble fraction (log2)” value was -1.12.

For “HMTHFRTDERRREILSTIEADGRVSVSEIASRFDVSPVTIRSDLNYLAIQGKLKRVRGGAVLLDH”, the “soluble fraction (log2)” value was -0.76.

For “HMGPPAVGSKLQDARKAQQLSLDELSKRAGVSKSMLSEVERNQANPTVGVLWRLATALGISLTDLLG”, the “soluble fraction (log2)” value was -0.374.

Take “HMRKTLSQEAYEKIKQNLEDGVYQGYINGRQVARDLDIGFTPVREAFLQLQSEGLIRKEDNVGYFV”: the “soluble fraction (log2)” value was 0.139.

Turning to “HMPVSRMRARHEALARGVMGIHAGGFSAVYGYRKVWHGLIGKGWDPGEVGRDQVMNIMRGLGMQGVRR”, the “soluble fraction (log2)” value was determined as 0.266.

On to “HMGDFLLTPHRGRSADFVIGNPPYIRLEDVPNDISDAYRAEYASMPGRADIHVGFYEKGLDL”, for which the “soluble fraction (log2)” value was -0.142.

For “HMDAPKTGSLVVSKAVNYGSWSGFTFRLHGTSDKGNSVDVTATTGSDGKAYFKDIEIGTYTLEEVN”, the “soluble fraction (log2)” value was -0.387.

With “HMAKINFTSDAIDIGMVTRNDIEMLSFYQNVLGLTKDMEIPFPGLGVVNKLSFGSGFIKILVL”, the “soluble fraction (log2)” value is -0.0122.

Turning to “HMAKPAALLFEHRFDGMAEMRFRENIVKNDDGSYTYDEYFLSMLDRAGLEKIVQENMEVWIAYAKQ”, the “soluble fraction (log2)” value is -2.17.

With “HMRKIEDVLRLHAQGMSTRRIALATGVGKTTVIEYLRRAAVAGLSWPLPEGLDEEALERRVFPPPP”, the “soluble fraction (log2)” value is -1.45.

Consider “HMFERIYVFSRDGDIIELPKGSTVLDFAYHVHTHVGNRAQAARVNKRYVPLTYQLKTGEQVEIIIS”, for which the “soluble fraction (log2)” value was -1.2.

As for “HMNVEGEVVVPNVIGRTMKDVAVILSDLGLRMEAEGTGVAKSSQPQHGTSVKRGTVVQVRFEPLSVN”, the “soluble fraction (log2)” value amounted to 0.141.

“HMGISVEVPDLKNMSVAEAGSLLKNSGLSYAVVDSDYVKTISPGKILDQNPGRGLRVKKGRIVYLTINSL”: the “soluble fraction (log2)” value was -1.37.

“HMFAADIGVGIVDADSLRVRSEPSTGAPIVTSLLRGTQVTVQEKLDGWYRITYNDVSGFVSAEYLIFTADE”: the “soluble fraction (log2)” value was -0.241.

Take “HMEDPRVTEIKNLQQDLAKKFKPTQGPASASDAVERVTAITTVMTKVAALPEDLRSEAMQPGKKM”: the “soluble fraction (log2)” value is -0.322.

In the case of “HMDEYGEVQALQRAGQTSEALARADRHIAAHPNDPQMRFVKANLLSAGGRAGEAETLLVQLTRD”, the “soluble fraction (log2)” value was -0.0234.

With “HMSNEITVPDLSGMSLEELETILSDRSLSYEIIDSIYNSTAKKGTVSSQDPLPDAKVKSGRTIYITVVSKL”, the “soluble fraction (log2)” value was -1.5.

With “HMHSLLDDIPNVGEKRKRILLTHFQSLEEIKAATVEELERLPQINRKAAESIYTFFHSQPIR”, the “soluble fraction (log2)” value was -0.0679.

Turning to “HMRKSNADALDGKTGIVKEEIKTGGYGYVGIDGDMWRSISESGEAIPAGTKVVVISHESIILTVKPA”, the “soluble fraction (log2)” value is -0.315.

As for “HMTELPLTPRSKRILEMSALEARRLNHSYIGTEHLLMAIIRDGDGVAAKILESLGVNLPNFYTDTVRSIE”, the “soluble fraction (log2)” value is -0.121.

For “HMIPTTELAERLGTTKVANMIMLGALIKASGIISFDDMIKNLGELLGEGKAKLIKLNKEALEVGFN”, the “soluble fraction (log2)” value was -0.0172.

Consider “HMDSPVLTAEIKALIDKELEQNAVKLATGLKKQRKRATDIHDALIRQGHEVSYRTVVRYIRNKTAQTS”, for which the “soluble fraction (log2)” value was -0.061.

As for “HMRQTGWVTADSLNVRARPSLQAERVEKVTYGQQVQIMFKQGQWYQIATENGKIGWVSSEYIAAVSP”, the “soluble fraction (log2)” value was -0.0654.

With “HMSNIQLAANLQRLRKDHHFTQTQFSKKLNISRQAYSNYETGKRIPDLDIIIRIANIYHISLENLL”, the “soluble fraction (log2)” value is -0.389.

For “HMSRVFSPSELEIRHAQDVFQALEEAKRQGKGAVSLNGKMIDAPIVARAKLVLEAAAAIYGED”, the “soluble fraction (log2)” value is -0.362.

As to “HMTNSAGIERFLASGAIDGVGPAMARRIVEHFGTEALRIIESVPHRLREISGIGPKTAEKIASSYMRQ”, the “soluble fraction (log2)” value is -0.689.

“HMNEIEIHINKLFGKISDSKRKQELMQEITQNLNEKVSDLVSQGQTREQAVKKAIEDFGDIDDLKDELDN”: the “soluble fraction (log2)” value is 0.275.

As to “HMKLTNIQYETLKVVVESRAKIDEEEGITIKLEDIKKYIDQAISFTGLVGDDEDYKKLFADMEYRFKIQ”, the “soluble fraction (log2)” value was -2.38.

On to “HMGWQPDPLTTRERLVAELATQASNAQIAEQLHLSVRTVEGHLAHVYTKLGITTRRELPAALAGAR”, for which the “soluble fraction (log2)” value was -0.891.

As for “HMQISSSEVLEKVVDEILSANPKSIEDYKNGKLQAAGFLMGQVMKATKGQANPAVAKELIEAKLKD”, the “soluble fraction (log2)” value is 0.419.

Consider “HMEIDFDKINSIFNDANKLYEEGDYFEANNLYKNIVSSNIISKDLYYNLGLSYAKIGSNGYAILWYERALN”, for which the “soluble fraction (log2)” value was -0.189.

Take “HMKVQEVDYGTFLTMVDEGKVNQVDIENSKQITFNTKGDKNKVYITGQVNDPELVNRLYKAGVEFSQEIP”: the “soluble fraction (log2)” value was found to be 0.0729.

For “HMGTAEDYLLPRRAEILSIIRDHEFANFDLIRRRFLAVNERTLRYDLKKLSDLGLIKKLGKTRGVYYRAAK”, the “soluble fraction (log2)” value is -1.49.

Turning to “HMIDELNVGDIRFYLNRYGKEIQIEIIRIGDDGSVYARTMADNALFRVPEARLKNIGEKVPAEEVQRG”, the “soluble fraction (log2)” value was -0.742.

For the sequence “HMYVQDPVDRLVLESALRLLREQEREIIFLHLVAGLKHREIAGLLHLPLSTVLSGYRRALTKMKSYLEE”, the “soluble fraction (log2)” value was -0.115.

On to “HMSPSSPNQILGQYPKTKNDIILSSGRYGPYLKYNKKNYSLGNNISVEKLSLEEAVKIIDLKDKK”, for which the “soluble fraction (log2)” value came out at 0.0457.

Turning to “HMKVYIKDISDLSDKLKSLLIENDIDDSNKLFEVEDQVLLEIKGLGSKTIDKIKDIVTEYLKKNN”, the “soluble fraction (log2)” value is -0.218.

(Values after the domain aggregation screens of Martell et al. (2025).)
